Test results published in article PMC10397247.

Legend:
4H1393-bH = biological target: T1, 4H1393-bH; experiment: two-hybrid library CCNG1;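 note: natural log of median RNA to DNA barcode read ratio; higher means stronger binding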
T1 chain: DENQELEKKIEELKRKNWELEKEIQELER

4H2702-bA = biological target: T2, 4H2702-bA; experiment: two-hybrid library CCNG1;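 note: natural log of median RNA to DNA barcode read ratio; higher means stronger binding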
T2 chain: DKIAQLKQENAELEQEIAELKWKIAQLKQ

4H1710-bH = biological target: T3, 4H1710-bH; experiment: two-hybrid library CCNG1;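 note: natural log of median RNA to DNA barcode read ratio; higher means stronger binding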
T3 chain: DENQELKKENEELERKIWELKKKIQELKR

4H850-bH = biological target: T4, 4H850-bH; experiment: two-hybrid library CCNG1;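 note: natural log of median RNA to DNA barcode read ratio; higher means stronger binding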
T4 chain: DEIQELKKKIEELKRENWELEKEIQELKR

4H906-bH = biological target: T5, 4H906-bH; experiment: two-hybrid library CCNG1;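 note: natural log of median RNA to DNA barcode read ratio; higher means stronger binding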
T5 chain: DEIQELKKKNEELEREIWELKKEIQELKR

4H1629-bH = biological target: T6, 4H1629-bH; experiment: two-hybrid library CCNG1;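 note: natural log of median RNA to DNA barcode read ratio; higher means stronger binding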
T6 chain: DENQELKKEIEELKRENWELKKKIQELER

4H3638-bH = biological target: T7, 4H3638-bH; experiment: two-hybrid library CCNG1
T7 chain: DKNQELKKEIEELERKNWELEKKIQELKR

4H1804-bH = biological target: T8, 4H1804-bH; experiment: two-hybrid library CCNG1
T8 chain: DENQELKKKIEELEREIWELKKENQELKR

4H3129-bH = biological target: T9, 4H3129-bH; experiment: two-hybrid library CCNG1
T9 chain: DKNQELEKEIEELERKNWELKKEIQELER

4H3414-bH = biological target: T10, 4H3414-bH; experiment: two-hybrid library CCNG1
T10 chain: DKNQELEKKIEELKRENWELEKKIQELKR

4H619-bH = biological target: T11, 4H619-bH; experiment: two-hybrid library CCNG1
T11 chain: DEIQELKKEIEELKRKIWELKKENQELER

4H584-bH = biological target: T12, 4H584-bH; experiment: two-hybrid library CCNG1
T12 chain: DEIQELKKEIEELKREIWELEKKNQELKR

4H3974-bH = biological target: T13, 4H3974-bH; experiment: two-hybrid library CCNG1
T13 chain: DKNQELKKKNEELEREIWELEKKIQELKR

4H1449-bH = biological target: T14, 4H1449-bH; experiment: two-hybrid library CCNG1
T14 chain: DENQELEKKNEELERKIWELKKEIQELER

4H3817-bH = biological target: T15, 4H3817-bH; experiment: two-hybrid library CCNG1
T15 chain: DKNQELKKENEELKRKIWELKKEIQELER

4H3172-bH = biological target: T16, 4H3172-bH; experiment: two-hybrid library CCNG1
T16 chain: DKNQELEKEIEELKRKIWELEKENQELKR

4H570-bH = biological target: T17, 4H570-bH; experiment: two-hybrid library CCNG1
T17 chain: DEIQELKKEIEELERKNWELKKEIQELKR

4H3628-bA = biological target: T18, 4H3628-bA; experiment: two-hybrid library CCNG1
T18 chain: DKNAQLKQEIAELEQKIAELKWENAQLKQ

APC2556-AA = biological target: T19, APC2556-AA; experiment: two-hybrid library CCmax; conditions: mean of both orientations
T19 chain: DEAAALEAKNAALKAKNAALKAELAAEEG

APC1987-AA = biological target: T20, APC1987-AA; experiment: two-hybrid library CCmax; conditions: mean of both orientations
T20 chain: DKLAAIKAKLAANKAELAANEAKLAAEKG

APC9141-AA = biological target: T21, APC9141-AA; experiment: two-hybrid library CCmax; conditions: mean of both orientations
T21 chain: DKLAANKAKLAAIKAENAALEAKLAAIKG

APC4336-AA = biological target: T22, APC4336-AA; experiment: two-hybrid library CCmax; conditions: mean of both orientations
T22 chain: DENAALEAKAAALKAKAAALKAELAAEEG

APC2543-AA = biological target: T23, APC2543-AA; experiment: two-hybrid library CCmax; conditions: mean of both orientations
T23 chain: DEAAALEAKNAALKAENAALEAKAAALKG

APC1916-AA = biological target: T24, APC1916-AA; experiment: two-hybrid library CCmax
T24 chain: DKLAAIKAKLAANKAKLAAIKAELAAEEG

APC2724-AA = biological target: T25, APC2724-AA; experiment: two-hybrid library CCmax; conditions: mean of both orientations
T25 chain: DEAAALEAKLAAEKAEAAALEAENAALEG

APC542-AA = biological target: T26, APC542-AA; experiment: two-hybrid library CCmax; conditions: mean of both orientations
T26 chain: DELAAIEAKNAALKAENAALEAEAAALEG

APC2257-AA = biological target: T27, APC2257-AA; experiment: two-hybrid library CCmax; conditions: mean of both orientations
T27 chain: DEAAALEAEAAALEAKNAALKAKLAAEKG

APC2811-AA = biological target: T28, APC2811-AA; experiment: two-hybrid library CCmax; conditions: mean of both orientations
T28 chain: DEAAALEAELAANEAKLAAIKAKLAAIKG

APC3354-AA = biological target: T29, APC3354-AA; experiment: two-hybrid library CCmax; conditions: mean of both orientations
T29 chain: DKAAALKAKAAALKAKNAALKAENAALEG

APC6088-AA = biological target: T30, APC6088-AA; experiment: two-hybrid library CCmax; conditions: mean of both orientations
T30 chain: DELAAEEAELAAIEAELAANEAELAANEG

APC9291-AA = biological target: T31, APC9291-AA; experiment: two-hybrid library CCmax; conditions: mean of both orientations
T31 chain: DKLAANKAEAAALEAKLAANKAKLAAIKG

APC3265-AA = biological target: T32, APC3265-AA; experiment: two-hybrid library CCmax; conditions: mean of both orientations
T32 chain: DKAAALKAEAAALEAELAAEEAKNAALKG

APC8401-AA = biological target: T33, APC8401-AA; experiment: two-hybrid library CCmax; conditions: mean of both orientations
T33 chain: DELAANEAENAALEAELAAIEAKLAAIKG

APC5531-AA = biological target: T34, APC5531-AA; experiment: two-hybrid library CCmax; conditions: mean of both orientations
T34 chain: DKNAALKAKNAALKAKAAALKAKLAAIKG

APC2474-AA = biological target: T35, APC2474-AA; experiment: two-hybrid library CCmax; conditions: mean of both orientations
T35 chain: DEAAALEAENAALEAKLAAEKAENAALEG

APC222-AA = biological target: T36, APC222-AA; experiment: two-hybrid library CCmax; conditions: mean of both orientations
T36 chain: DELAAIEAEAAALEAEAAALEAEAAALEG

APC9182-AA = biological target: T37, APC9182-AA; experiment: two-hybrid library CCmax; conditions: mean of both orientations
T37 chain: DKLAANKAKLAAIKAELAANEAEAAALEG

APC5009-AA = biological target: T38, APC5009-AA; experiment: two-hybrid library CCmax; conditions: mean of both orientations
T38 chain: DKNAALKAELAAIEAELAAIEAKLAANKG

APC2375-AA = biological target: T39, APC2375-AA; experiment: two-hybrid library CCmax; conditions: mean of both orientations
T39 chain: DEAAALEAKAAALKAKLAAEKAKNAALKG

APC2981-AA = biological target: T40, APC2981-AA; experiment: two-hybrid library CCmax; conditions: mean of both orientations
T40 chain: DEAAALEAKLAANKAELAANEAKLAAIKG

APC9806-AA = biological target: T41, APC9806-AA; experiment: two-hybrid library CCmax; conditions: mean of both orientations
T41 chain: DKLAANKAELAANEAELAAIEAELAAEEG

APC3881-AA = biological target: T42, APC3881-AA; experiment: two-hybrid library CCmax; conditions: mean of both orientations
T42 chain: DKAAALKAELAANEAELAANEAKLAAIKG

APC4100-AA = biological target: T43, APC4100-AA; experiment: two-hybrid library CCmax; conditions: mean of both orientations
T43 chain: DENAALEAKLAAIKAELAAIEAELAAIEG

APC3323-AA = biological target: T44, APC3323-AA; experiment: two-hybrid library CCmax; conditions: mean of both orientations
T44 chain: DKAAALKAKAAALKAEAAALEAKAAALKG

APC8516-AA = biological target: T45, APC8516-AA; experiment: two-hybrid library CCmax; conditions: mean of both orientations
T45 chain: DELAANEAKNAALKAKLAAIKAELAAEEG

APC7524-AA = biological target: T46, APC7524-AA; experiment: two-hybrid library CCmax; conditions: mean of both orientations
T46 chain: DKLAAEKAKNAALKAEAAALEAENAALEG

B1: 4H1393-bH (peptide)
chain: DENQELEKKIEELKRKNWELEKEIQELER
B1 gave an interaction score (4H1393-bH) of -0.111, an interaction score (4H2702-bA) of -2.15 and an interaction score (4H1710-bH) of -0.501. For the same binder, the interaction score (4H850-bH) was 0.00584, the interaction score (4H906-bH) was -1.05 and the interaction score (4H1629-bH) was -0.557. The interaction score (4H3638-bH) was 1.2, the interaction score (4H1804-bH) was -1.63 and the interaction score (4H3129-bH) was 0.0961. It also gave an interaction score (4H3414-bH) of 1, an interaction score (4H619-bH) of -1.79 and an interaction score (4H584-bH) of -0.3. The interaction score (4H3974-bH) was 0.0308, the interaction score (4H1449-bH) was -2.77 and the interaction score (4H3817-bH) was -0.474. For the same binder, the interaction score (4H3172-bH) was -0.553, the interaction score (4H570-bH) was -0.453 and the interaction score (4H3628-bA) was -0.789.

B2: APC1916-AA (peptide)
chain: DKLAAIKAKLAANKAKLAAIKAELAAEEG
Binder B2 has an interaction score (APC2556-AA) of -1.71, an interaction score (APC1987-AA) of -2.06 and an interaction score (APC9141-AA) of -1.7. The interaction score (APC4336-AA) was -1.64, the interaction score (APC2543-AA) was -1.62 and the interaction score (APC1916-AA) was -1.89. It also gave an interaction score (APC2724-AA) of -1.83, an interaction score (APC542-AA) of -1.62 and an interaction score (APC2257-AA) of -1.73. It also gave an interaction score (APC2811-AA) of -2.01, an interaction score (APC3354-AA) of -1.8 and an interaction score (APC6088-AA) of -1.82. The interaction score (APC9291-AA) was -2.08, the interaction score (APC3265-AA) was -1.75 and the interaction score (APC8401-AA) was -0.817. It also gave an interaction score (APC5531-AA) of -1.75, an interaction score (APC2474-AA) of -1.31 and an interaction score (APC222-AA) of -1.45. The interaction score (APC9182-AA) was -1.82, the interaction score (APC5009-AA) was -0.00974 and the interaction score (APC2375-AA) was -1.88. For the same binder, the interaction score (APC2981-AA) was -1.78, the interaction score (APC9806-AA) was -2.04 and the interaction score (APC3881-AA) was -1.78. For the same binder, the interaction score (APC4100-AA) was 0.352, the interaction score (APC3323-AA) was -1.94 and the interaction score (APC8516-AA) was -1.83. The interaction score (APC7524-AA) was -1.57.
